Test results taken from IntAct's records for PubMed 7973632.

B1: Receptor-like protein kinase 5 (Arabidopsis thaliana (Mouse-ear cress)), P47735 (parent)
chain: MLYCLILLLCLSSTYLPSLSLNQDATILRQAKLGLSDPAQSLSSWSDNNDVTPCKWLGVSCDATSNVVSVDLSSFMLVGPFPSILCHLPSLHSLSLYNNSINGSLSADDFDTCHNLISLDLSENLLVGSIPKSLPFNLPNLKFLEISGNNLSDTIPSSFGEFRKLESLNLAGNFLSGTIPASLGNVTTLKELKLAYNLFSPSQIPSQLGNLTELQVLWLAGCNLVGPIPPSLSRLTSLVNLDLTFNQLTGSIPSWITQLKTVEQIELFNNSFSGELPESMGNMTTLKRFDASMNKLTGKIPDNLNLLNLESLNLFENMLEGPLPESITRSKTLSELKLFNNRLTGVLPSQLGANSPLQYVDLSYNRFSGEIPANVCGEGKLEYLILIDNSFSGEISNNLGKCKSLTRVRLSNNKLSGQIPHGFWGLPRLSLLELSDNSFTGSIPKTIIGAKNLSNLRISKNRFSGSIPNEIGSLNGIIEISGAENDFSGEIPESLVKLKQLSRLDLSKNQLSGEIPRELRGWKNLNELNLANNHLSGEIPKEVGILPVLNYLDLSSNQFSGEIPLELQNLKLNVLNLSYNHLSGKIPPLYANKIYAHDFIGNPGLCVDLDGLCRKITRSKNIGYVWILLTIFLLAGLVFVVGIVMFIAKCRKLRALKSSTLAASKWRSFHKLHFSEHEIADCLDEKNVIGFGSSGKVYKVELRGGEVVAVKKLNKSVKGGDDEYSSDSLNRDVFAAEVETLGTIRHKSIVRLWCCCSSGDCKLLVYEYMPNGSLADVLHGDRKGGVVLGWPERLRIALDAAEGLSYLHHDCVPPIVHRDVKSSNILLDSDYGAKVADFGIAKVGQMSGSKTPEAMSGIAGSCGYIAPEYVYTLRVNEKSDIYSFGVVLLELVTGKQPTDSELGDKDMAKWVCTALDKCGLEPVIDPKLDLKFKEEISKVIHIGLLCTSPLPLNRPSMRKVVIMLQEVSGAVPCSSPNTSKRSKTGGKLSPYYTEDLNSV
partner: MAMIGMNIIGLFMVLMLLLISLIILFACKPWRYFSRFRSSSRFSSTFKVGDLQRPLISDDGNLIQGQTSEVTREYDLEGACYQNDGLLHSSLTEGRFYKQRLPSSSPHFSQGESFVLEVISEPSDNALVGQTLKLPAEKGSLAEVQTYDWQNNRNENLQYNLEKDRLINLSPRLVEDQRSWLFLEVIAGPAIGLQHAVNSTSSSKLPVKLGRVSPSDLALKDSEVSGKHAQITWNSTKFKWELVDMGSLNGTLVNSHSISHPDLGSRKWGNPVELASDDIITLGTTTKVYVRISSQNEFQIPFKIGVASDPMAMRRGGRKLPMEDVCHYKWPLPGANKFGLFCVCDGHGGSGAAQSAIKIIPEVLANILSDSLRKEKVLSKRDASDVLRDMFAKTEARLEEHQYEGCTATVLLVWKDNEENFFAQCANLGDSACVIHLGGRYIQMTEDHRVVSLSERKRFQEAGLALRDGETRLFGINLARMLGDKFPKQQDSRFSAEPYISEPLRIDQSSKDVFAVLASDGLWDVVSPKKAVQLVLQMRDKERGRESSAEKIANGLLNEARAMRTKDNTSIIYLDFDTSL

Variants of: B1
Details: with KAPP

Variant | effect of a mutation on the interaction
K711E | disrupting interaction
